Measured values from patent US20240041922A1 (MONASH UNIVERSITY, published 2024).
Values belong to the binder of their own block, whether it stands above or below them.

Assays:
[1] = biological target: T1, human recombinant NAMPT(1) (recombinant human visfatin, PeproTech) (human, UniProt P43490 27-491, limits assumed); assay: ELISA: plate coated with 20 nM GST-hrCCR5, 0-800 nM hrNAMPT(1), biotinylated anti-NAMPT detection, BSA signal deducted, non-linear fit
T1 construct: Bought protein; also called hrNAMPT(1); hrNAMPT source 1
T1 sequence (P43490 27-491 limits assumed): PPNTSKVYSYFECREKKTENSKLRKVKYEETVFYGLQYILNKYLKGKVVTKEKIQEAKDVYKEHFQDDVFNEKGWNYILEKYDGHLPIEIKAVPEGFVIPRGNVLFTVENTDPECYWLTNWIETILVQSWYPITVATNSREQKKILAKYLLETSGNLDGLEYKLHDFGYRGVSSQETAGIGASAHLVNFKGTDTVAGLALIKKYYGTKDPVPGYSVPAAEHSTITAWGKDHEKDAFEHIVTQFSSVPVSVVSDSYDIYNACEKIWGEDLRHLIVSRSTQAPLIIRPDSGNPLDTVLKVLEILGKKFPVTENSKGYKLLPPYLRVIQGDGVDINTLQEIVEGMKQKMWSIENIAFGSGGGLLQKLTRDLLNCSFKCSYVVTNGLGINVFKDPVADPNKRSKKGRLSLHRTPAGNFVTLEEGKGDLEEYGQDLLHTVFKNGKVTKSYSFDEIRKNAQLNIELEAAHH
Experimental: Wells were blocked for 1 h at room temperature with 1% BSA in PBS containing 0.05% Tween-20 (PBS-T).

[2] = biological target: CCR5 (as used in the NAMPTcif competition assay of FIG. 9b); assay: competition assay: inhibition of NAMPT binding to CCR5 by NAMPTcif (FIG. 9b); format not described
[3] = biological target: T2, recombinant mouse CCR5 (MyBioSource) (mouse, UniProt P51682 1-354, limits assumed); assay: competitive ELISA: plate coated with 20 nM mrCCR5, 0-400 nM mrCCL4 with 100 nM hrNAMPT(1) as competitor, bound hrNAMPT(1) detected
T2 construct: Coated on the ELISA plate at 20 nM; also called mrCCR5; mouse recombinant CCR5
T2 sequence (P51682 whole entry): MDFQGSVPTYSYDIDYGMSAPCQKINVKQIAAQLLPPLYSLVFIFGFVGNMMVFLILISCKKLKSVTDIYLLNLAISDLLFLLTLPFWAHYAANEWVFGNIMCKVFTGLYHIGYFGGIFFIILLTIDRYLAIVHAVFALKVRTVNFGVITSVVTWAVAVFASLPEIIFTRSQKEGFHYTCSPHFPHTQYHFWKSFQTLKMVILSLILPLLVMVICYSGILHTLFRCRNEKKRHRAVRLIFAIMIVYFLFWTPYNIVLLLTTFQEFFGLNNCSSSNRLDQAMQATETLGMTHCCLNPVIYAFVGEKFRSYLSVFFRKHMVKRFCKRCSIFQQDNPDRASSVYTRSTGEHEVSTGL
Experimental: Then, wells were blocked for 1 h at room temperature with 1% BSA in PBS containing 0.05% Tween-20 (PBS-T).

Kd [1]: 172 nM
B1: GST-fused recombinant human CCR5 (Abcam) (receptor)
chain: not shown
notes: Coated on the ELISA plate at 20 nM; GST is put first here only by convention; also called hrCCR5; human recombinant CCR5; not shown: GST fusion partner

IC50 [2]: 21.5 nM
B2: NAMPT402-491 (recombinant C-terminal 'cytokine finger' fragment of NAMPT) (ligand)
chain: MSYVVTNGLGVNVFKDPVADPNKRSKKGRLSLHRTPAGNFVTLEEGKGDLEEYGHDLLHTVFKNGKVTKSYSFDEVRKNAQLNIEQDVAPHHHHHHH
notes: Made in E. coli BL21(DE3) from pET22b(+) and purified on HisTap; also called NAMPTcif; cif

IC50 [3]: 34.4 nM
B3: recombinant murine CCL4/MIP-1beta (PeproTech) (ligand, mouse, UniProt P14097 24-92, looked up)
chain: APMGSDPPTSCCFSYTSRQLHRSFVMDYYETSSLCSKPAVVFLTKRGRQICANPSEPWVTEYMSDLELN
notes: also called mrCCL4; mouse recombinant CCL4
